Measurements as given in patent publication US20030165934.

Target: T1, recombinant human Rad17 protein tagged with a Flag epitope at its N terminus, purified from baculovirus infected insect cells
T1 chain: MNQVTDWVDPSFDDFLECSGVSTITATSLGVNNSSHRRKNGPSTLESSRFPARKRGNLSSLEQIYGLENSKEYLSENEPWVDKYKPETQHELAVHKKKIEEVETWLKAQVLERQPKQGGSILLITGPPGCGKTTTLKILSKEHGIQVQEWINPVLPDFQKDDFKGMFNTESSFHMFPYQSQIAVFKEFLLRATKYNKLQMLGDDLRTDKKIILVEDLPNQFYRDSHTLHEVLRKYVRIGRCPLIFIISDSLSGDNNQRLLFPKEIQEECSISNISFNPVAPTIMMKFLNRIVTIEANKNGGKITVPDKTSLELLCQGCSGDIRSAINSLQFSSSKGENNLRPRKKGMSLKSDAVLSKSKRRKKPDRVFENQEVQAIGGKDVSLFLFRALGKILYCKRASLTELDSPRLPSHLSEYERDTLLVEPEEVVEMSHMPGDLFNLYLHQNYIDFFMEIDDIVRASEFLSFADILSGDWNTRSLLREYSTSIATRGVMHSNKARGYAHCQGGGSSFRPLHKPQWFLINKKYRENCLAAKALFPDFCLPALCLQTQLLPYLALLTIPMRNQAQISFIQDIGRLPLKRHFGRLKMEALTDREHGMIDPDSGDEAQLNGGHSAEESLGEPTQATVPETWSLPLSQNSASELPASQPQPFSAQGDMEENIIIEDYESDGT

B1: ATR-ATRIP complex reconstituted in vitro from purified ATR and purified ATRIP (protein)
chain 1: not shown
chain 2: MAGTSAPGSKRRSEPPAPRPGPPPGTGHPPSKRARGFSAAAAPDPDDPFGAHGDFTADDLEELDTLASQALSQCPAAARDVSSDHKVHRLLDGMSKNPSGKNRETVPIKDNFELEVLQAQYKELKEKMKVMEEEVLIKNGEIKILRDSLHQTESVLEEQRRSHFLLEQEKTQALSDKEKEFSKKLQSLQSELQFKDAEMNELRTKLQTSERANKLAAPSVSHVSPRKNPSVVIKPEACSPQFGKTSFPTKESFSANMSLPHPCQTESGYKPLVGREDSKPHSLRGDSIKQEEAQKSFVDSWRQRSNTQGSILINLLLKQPLIPGSSLSLCHLLSSSSESPAGTPLQPPGFGSTLAGMSGLRTTGSYDGSFSLSALREAQNLAFTGLNLVARNECSRDGDPAEGGRRAFPLCQLPGAVHFLPLVQFFIGLHCQALQDLAAAKRSGAPGDSPTHSSCVSSGVETNPEDSVCILEGFSVTALSILQHLVCHSGAVVSLLLSGVGADSAAGEGNRSLVHRLSDGDMTSALRGVADDQGQHPLLKMLLHLLAFSSAATGHLQASVLTQCLKVLVKLAENTSCDFLPRFQCVFQVLPKCLSPETPLPSVLLAVELLSLLADHDQLAPQLCSHSEGCLLLLLYMYITSRPDRVALETQWLQLEQEVVWLLAKLGVQSPLPPVTGSNCQCNVEVVRALTVMLHRQWLTVRRAGGPPRTDQQRRTVRCLRDTVLLLHGLSQKDKLFMMHCVEVLHQFDQVMPGVSMLIRGLPDVTDCEEAALDDLCAAETDVEDPEVECG
With B1 the “phosphorylated Rad17 on DNA (Ser635P)” value was “human replication protein A (RPA) stimulates the phosphorylation of Rad17 by the ATR-ATRIP complex”.
